Measured values: patent US20210246224A1 (Regeneron, published 2021)

B1: H4H25018D (bispecific antibody, IgG4, V domains shown)
VH 1: QVQLQESGPGLVKPSQTLSLTCTVSGGSISSGHYFWSWIRQHPGKGLEWIGYIFYSGSTHYNPSLKSRLSISVDTSKNQFSLRLTSVTAADTAVYYCAREEGDYNFWDVDYVPGHFDYWGQGTLVTVSS
VH 2: EVQLVESGGGLVQPGRSLRLSCVASGFTFADYAMHWVRQAPGKGLEWVSGISWNSGNIDYADSVKGRFTISRDNAKNSLYLQMNSLRTEDTALYYCAKVRIVVAGYYYYYYGMDVWGQGTTVTVSS
VL: not shown
notes: Wild-type kappa CL and a modified (chimeric) IgG4 CH domain as set forth in US20140243504A1; also called bispecific anti-HER2xAPLP2 antibody
B2: H4H25020D (bispecific antibody, IgG4, V domains shown)
VH 1: B1 VH 1
VH 2: QVQLVQSGVEVKKPGASVKVSCKASGYTFTDYGISWVRQAPGQGLEWMGWISAHNGNTNYAQKLQGRVTMTTDTSTNTAYMELRSLRSDDTAVYYCARRNWKYFDYWGQGTLVTVSS
VL: not shown
notes: as for B1
B3: H4H25017D (bispecific antibody, IgG4, V domains shown)
VH 1: QVQLVQSGPEVKKPGASVKVSCKASGYTFPNFGISWVRQAPGQGLEWMGWIAPYNVATNYAPKLQGRVTMTTDTSTSTAYMELRSLRSDDTAVYYCARWGAGYMGYYYYGMDVWGQGTTVTVSS
VH 2: EVQLVESGGGLVQPGGSLRLSCAASGFTFSTYVMSWVRQAPGKGPEWVSGISGRTGTTYYADSVKGRFTISRDNSKNTLYLQMNSLRAEDTAVYYCASRITAAGRGYYYYYGMDVWGRGTTVTVSS
VL: not shown
notes: as for B1
B4: H4H25021D (bispecific antibody, IgG4, V domains shown)
VH 1: B3 VH 1
VH 2: B2 VH 2
VL: not shown
notes: as for B1
B5: H4H25019D (bispecific antibody, IgG4, V domains shown)
VH 1: B3 VH 1
VH 2: B1 VH 2
VL: not shown
notes: as for B1

Tests used:
[1] = target: T1, human HER2 expressed on cells (cancer cell lines and normal primary cultures) (human, UniProt P04626 23-1255); test: imaging, Alexa647-labelled antibody 10 ug/mL at 4 C on SKBR3 cells; signal per nuclei, normalised to the highest cell line
T1 construct: Endogenous HER2 of the cell lines; the same cells also express APLP2; also called human epidermal growth factor receptor 2
Method: (§1) To test the ability of bispecific anti-HER2xAPLP2 molecules described herein to bind to cells lines expressing various levels of HER2, a high content imaging assay was performed. […] Cells were plated on collagen-coated, black wall, 96-well, optical plates (Greiner, Cat #655936) at 2.5×10⁵ cells per well in their appropriate culture media, which is described for each cell line/culture in Table 6, and incubated overnight at 37° C. in 5% CO₂.
(§2) After, cells were washed twice with cold DMEM+10% FBS. […] After, the solution was replaced with DPBS/CM. Binding of the bispecific antibodies to each of the cell types was measured using an Image Xpress^Micro automatic microscope (Molecular Devices). […] (See also FIG. 2.)
(§3) The signal of antibody binding (mean intensity fluorescence of Alexa647) divided by the nuclei signals was determined for each condition using MetaXpress software (Molecular Devices). Values were normalized to the cell line displaying the highest antibody binding signal.

[2] = target: T1, human HER2 expressed on cells (cancer …); test: imaging, Alexa647-labelled antibody 10 ug/mL at 4 C on NLE cells; signal per nuclei, normalised to the highest cell line
Method: as §2, §3

[3] = target: T2, human APLP2 extracellular domain expressed with a C-terminal myc-myc-hexahistidine tag (human, UniProt Q06481 32-692); test: SPR, antibody captured, hAPLP2-MMH injected, 25 C
T2 construct: also called hAPLP2-MMH; APLP2.mmh

[4] = target: T1, human HER2 expressed on cells (cancer …); test: imaging, Alexa647-labelled antibody 10 ug/mL at 4 C on JIMT-1 cells; signal per nuclei, normalised to the highest cell line
Method: as §2, §3

[5] = target: T1, human HER2 expressed on cells (cancer …); test: imaging, Alexa647-labelled antibody 10 ug/mL at 4 C on NBE cells; signal per nuclei, normalised to the highest cell line
Method: as §2, §3

[6] = target: T1, human HER2 expressed on cells (cancer …); test: imaging, Alexa647-labelled antibody 10 ug/mL at 4 C on T47D cells; signal per nuclei, normalised to the highest cell line
Method: as §2, §3

[7] = target: T1, human HER2 expressed on cells (cancer …); test: imaging, Alexa647-labelled antibody 10 ug/mL at 4 C on MCF7 cells; signal per nuclei, normalised to the highest cell line
Method: as §2, §3

[8] = target: T2, human APLP2 extracellular domain …; test: SPR (Biacore 4000), antibody captured on anti-human Fc, hAPLP2-MMH injected, 37 C
Method: (§4) Equilibrium dissociation constants (KD values) for HER2 and APLP2 binding to purified anti-HER2xAPLP2 bispecific and parental antibodies were determined using a real-time surface plasmon resonance biosensor using a Biacore 4000 instrument. The Biacore sensor surface was first derivatized by amine coupling with a monoclonal mouse anti-human Fc antibody (GE, Cat #BR-1008-39) to capture anti-HER2xAPLP2 bispecific monoclonal antibodies. […] Kinetic association rate constant (ka) and dissociation rate constant (kd) were determined by fitting the real-time sensorgrams to a 1:1 binding model using Scrubber 2.0c curve fitting software. Binding dissociation equilibrium constants (KD) and dissociative half-lives (t1/2) were calculated from the kinetic rate constants as: […]

[9] = target: T3, human HER2 extracellular domain expressed with a C-terminal myc-myc-hexahistidine tag (human, UniProt P04626 23-652); test: SPR (Biacore 4000), antibody captured on anti-human Fc, hHER2-MMH injected, 37 C
T3 construct: also called hHER2-MMH; HER2.mmh
Method: as §4

[10] = target: T1, human HER2 expressed on cells (cancer …); test: imaging, Alexa647-labelled antibody 10 ug/mL at 4 C on MDA-MB-361 cells; signal per nuclei, normalised to the highest cell line
Method: as §2, §3

[11] = target: T1, human HER2 expressed on cells (cancer …); test: imaging, Alexa647-labelled antibody 10 ug/mL at 4 C on MDA-MB-453 cells; signal per nuclei, normalised to the highest cell line
Method: as §2, §3

[12] = target: T1, human HER2 expressed on cells (cancer …); test: imaging, Alexa647-labelled antibody 10 ug/mL at 4 C on MDA-MB-468 cells; signal per nuclei, normalised to the highest cell line
Method: as §2, §3

[13] = target: T1, human HER2 expressed on cells (cancer …); test: imaging, Alexa647-labelled antibody 10 ug/mL at 4 C on BT483 cells; signal per nuclei, normalised to the highest cell line
Method: as §1, §2, §3

[14] = target: T2, human APLP2 extracellular domain …; test: SPR, antibody captured, hAPLP2-MMH injected, 25 C (second row for this antibody)
[15] = target: T1, human HER2 expressed on cells (cancer …); test: imaging, Alexa647-labelled antibody on MDA-MB-361 cells at 4 C; competitor hHER2-MMH
Method: (§5) For the assay, cells were plated on collagen-coated, black wall, 96-well, optical plates (Greiner, Cat #655936) at 2.5×10⁵ cells per well in their appropriate culture media (described in previous examples), and incubated overnight at 37° C. in 5% CO₂. The next day, the cells were placed in refrigeration at 4° C. for 30 minutes. […] To each antibody solution, either PBS alone, human HER2 extracellular domain expressed with a C-terminal myc-myc-hexahistidine tag (hHER2-MMH; SEQ ID NO: 53) alone, human APLP2 extracellular domain expressed with a C-terminal myc-myc-hexahistidine tag (hAPLP2-MMH; SEQ ID NO: 54) alone, or the combination of hHER2-MMH and hAPLP2-MMH was added at a concentration of […]. After incubation, and removal of culture media, 50 μL/well of the bispecific antibody and soluble protein solutions were added to the cells for 30 minutes at 4° C. The cells were subsequently washed with 150 μL/well of DMEM containing 10% FBS at 4° C. for 10 minutes. […] The fixing buffer was then removed, 100 uL of DPBS/CM was added and allowed to incubate for approximately 20 minutes at room temperature prior to image acquisition. Binding of the bispecific antibodies to each of the cell types was measured using an Image Xpress^Micro automatic microscope (Molecular Devices). Data acquired was analyzed using MetaXpress software (Molecular Devices). […]

[16] = target: T1, human HER2 expressed on cells (cancer …); test: imaging, Alexa647-labelled antibody on MDA-MB-361 cells at 4 C; competitor hAPLP2-MMH
Method: as §5

[17] = target: T1, human HER2 expressed on cells (cancer …); test: imaging, Alexa647-labelled antibody on MDA-MB-361 cells at 4 C; No Block
Method: as §5

[18] = target: T1, human HER2 expressed on cells (cancer …); test: imaging, Alexa647-labelled antibody on MDA-MB-361 cells at 4 C; competitors hHER2-MMH + hAPLP2-MMH
Method: as §5

T2 sequence (Q06481 other isoform, or with tags, fused parts or gaps): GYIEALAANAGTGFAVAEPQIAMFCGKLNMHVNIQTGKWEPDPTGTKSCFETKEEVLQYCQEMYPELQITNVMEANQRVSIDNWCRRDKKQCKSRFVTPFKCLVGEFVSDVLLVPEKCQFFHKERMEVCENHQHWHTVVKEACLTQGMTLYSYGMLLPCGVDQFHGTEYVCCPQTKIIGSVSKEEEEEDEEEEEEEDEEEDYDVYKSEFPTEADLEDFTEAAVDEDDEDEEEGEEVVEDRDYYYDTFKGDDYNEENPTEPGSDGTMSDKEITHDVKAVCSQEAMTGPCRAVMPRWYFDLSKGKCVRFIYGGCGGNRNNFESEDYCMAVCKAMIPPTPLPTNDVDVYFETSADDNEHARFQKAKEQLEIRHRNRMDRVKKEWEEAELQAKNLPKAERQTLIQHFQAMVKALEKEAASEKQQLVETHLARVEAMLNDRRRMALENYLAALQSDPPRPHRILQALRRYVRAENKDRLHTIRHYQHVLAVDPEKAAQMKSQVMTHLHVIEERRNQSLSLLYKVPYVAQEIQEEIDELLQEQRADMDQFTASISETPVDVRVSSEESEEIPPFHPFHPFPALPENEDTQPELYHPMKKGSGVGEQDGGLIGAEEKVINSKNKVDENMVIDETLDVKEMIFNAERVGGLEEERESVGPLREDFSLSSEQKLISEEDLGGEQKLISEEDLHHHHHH

Binder	Antibody bound (% of highest) [1] [%]	Antibody bound (% of highest) [2] [%]	90 nM hAPLP2-MMH Bound (RU) [3] [RU]	Kd [3] [nM]	t½ [3] [min]	Antibody bound (% of highest) [4] [%]	Antibody bound (% of highest) [5] [%]	Antibody bound (% of highest) [6] [%]	Antibody bound (% of highest) [7] [%]	100 nM hAPLP2-MMH Bound (RU) [8] [RU]	Kd [8] [nM]	t½ [8] [min]	Kd [9] [nM]	Antibody bound (% of highest) [10] [%]	Antibody bound (% of highest) [11] [%]	Antibody bound (% of highest) [12] [%]	Antibody bound (% of highest) [13] [%]	Kd [14] [nM]	t½ [14] [min]	t½ [9] [min]	also measured
B1	100	3	30.2	15.6	6.8	17	9	5	6	49	145	1.2	4.21	30	25	1	16	16.6	7.7	–	–
B2	100	6	–	–	–	18	8	5	5	30	844	0.03	4.2	27	24	1	15	–	–	–	–
B3	100	4	13.4	8.5	14.8	17	10	7	9	13	281	1.2	4.85	35	31	1	22	–	–	13	Bispecific antibody signal (Fold over blank) [15]: 3 fold over blank; Bispecific antibody signal (Fold over blank) [16]: 13 fold over blank; koff [3]: 0.000782 s⁻¹; kon [3]: 92000 M⁻¹ s⁻¹; koff [8]: 0.00977 s⁻¹; kon [8]: 34700 M⁻¹ s⁻¹; koff [9]: 0.0009 s⁻¹; kon [9]: 186000 M⁻¹ s⁻¹; Bispecific antibody signal (Fold over blank) [17]: 14 fold over blank; Bispecific antibody signal (Fold over blank) [18]: 5 fold over blank
B4	100	7	–	–	–	17	8	8	7	24	976	0.04	–	37	28	1	22	–	–	–	–
B5	100	2	30.6	14.6	8.7	15	6	9	7	48	183	1.1	–	32	30	1	22	17.2	6.7	11	–
